The supplement of paper PMC10126150
± gives the standard deviation of the averaged measurements.
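Further: ATP exposure 15 min at 22 °C before imaging.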

Each sequence was assayed on ATP (assay: switch fluorescence ratio, 500 uM ATP over buffer (Cy3 cluster intensity, sum of 5 cycles each) (fold (ratio)); higher = stronger signal-on switching upon ATP binding; sequences stand for … in TCGTCGGCAGCGTCAGATGTGTATAAGAGACAGTTTTTTTTTTTTTTTTTTTTTTTTT…TC). Details: aptamer strand: ATP DNA aptamer (quencher-CACCTGGGGGAGTATTGCGGAGGAAGG + anchor), 100 nM annealed; ATP concentration: 500 uM.
Method in brief: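 Five buffer/ATP imaging cycles were run on Cy3-labelled switching-strand clusters on a modified Illumina MiSeq flow-cell, with NaOH stripping and re-annealing between cycles. In each cycle, clusters annealed to 100 nM quencher-labelled ATP aptamer were imaged in selection buffer, then after 15 min with 500 uM ATP at 22 °C. Per cluster, the fluorescence ratio is summed target-cycle over summed buffer-cycle Cy3 intensity, averaged per switch-domain sequence. Only clusters within 100-1000 RFU were kept.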
TTAGGGGTCC gave a switch fluorescence ratio of 0.998 ± 0.022. With TTAGGGGTGC the switch fluorescence ratio was 1.07 ± 0.037. With TTAGGGGTTG the switch fluorescence ratio was 0.979 ± 0.024. With TTAGGGGTTT the switch fluorescence ratio was 0.997 ± 0.041. For TTAGGGTCCC, the switch fluorescence ratio was 1.02 ± 0.016. TTAGGGTGCA gave a switch fluorescence ratio of 1.01 ± 0.025. Sequence TTAGGTACCG has a switch fluorescence ratio of 1.012 ± 0.0016. TTAGGTCCGG gave a switch fluorescence ratio of 1.008 ± 0.0092. TTAGGTGAGG gave a switch fluorescence ratio of 0.993 ± 0.026. TTAGGTGGAG showed a switch fluorescence ratio of 0.977 ± 0.031. TTAGGTGTTA was tested, and the switch fluorescence ratio was 1.03 ± 0.022. TTAGGTTCAG showed a switch fluorescence ratio of 0.9774 ± 0.0084. TTAGTACATG showed a switch fluorescence ratio of 0.976 ± 0.019. TTAGTACTGC gave a switch fluorescence ratio of 1.03 ± 0.02. With TTAGTAGGGG the switch fluorescence ratio was 1 ± 0.021. TTAGTAGTGC was tested, and the switch fluorescence ratio was 1.02 ± 0.035. In the case of TTAGTAGTTG, the switch fluorescence ratio is reported as 1.02 ± 0.028. TTAGTATTTA was tested, and the switch fluorescence ratio was 1.01 ± 0.056. TTAGTCCAGA gave a switch fluorescence ratio of 1.007 ± 0.0018. With TTAGTCGGGA the switch fluorescence ratio was 1.023 ± 0.0028. TTAGTGACTA gave a switch fluorescence ratio of 1.01 ± 0.031. TTAGTGATCT gave a switch fluorescence ratio of 0.998 ± 0.015. Work on TTAGTGGGTA yielded a switch fluorescence ratio of 0.981 ± 0.082. Sequence TTAGTGTCGT has a switch fluorescence ratio of 1.02 ± 0.017. TTAGTTAAAG was tested, and the switch fluorescence ratio was 1 ± 0.014. In the case of TTAGTTATAC, the switch fluorescence ratio is reported as 1.78 ± 0.59. TTAGTTATTC was tested, and the switch fluorescence ratio was 1.022 ± 0.0032. For TTAGTTGGTC, the switch fluorescence ratio was 0.996 ± 0.029. For TTAGTTGTGG, the switch fluorescence ratio was 0.982 ± 0.02. In the case of TTAGTTTAAT, the switch fluorescence ratio is reported as 1.02 ± 0.024. TTAGTTTATG gave a switch fluorescence ratio of 0.981 ± 0.017. Sequence TTAGTTTCTT has a switch fluorescence ratio of 0.999 ± 0.017. For TTAGTTTTAC, the switch fluorescence ratio was 1.004 ± 0.0029. In the case of TTAGTTTTCT, the switch fluorescence ratio is reported as 0.96 ± 0.013. TTAGTTTTTT gave a switch fluorescence ratio of 1.01 ± 0.019. In the case of TTATAAAAAC, the switch fluorescence ratio is reported as 0.982 ± 0.076. For TTATAAAAAG, the switch fluorescence ratio was 0.974 ± 0.042. Work on TTATAACTTT yielded a switch fluorescence ratio of 1.02 ± 0.028. For TTATAAGAGG, the switch fluorescence ratio was 0.979 ± 0.0047. TTATAAGCGA gave a switch fluorescence ratio of 1.02 ± 0.035. TTATAAGGAA gave a switch fluorescence ratio of 0.981 ± 0.015. For TTATAAGGGA, the switch fluorescence ratio was 0.977 ± 0.049. In the case of TTATAAGTTA, the switch fluorescence ratio is reported as 0.9814 ± 0.0043. Work on TTATAAGTTT yielded a switch fluorescence ratio of 1.03 ± 0.078. In the case of TTATAATAGT, the switch fluorescence ratio is reported as 1 ± 0.013. TTATAATTGT showed a switch fluorescence ratio of 0.9966 ± 0.0022. With TTATAATTTC the switch fluorescence ratio was 1.009 ± 0.0023. In the case of TTATACGCTT, the switch fluorescence ratio is reported as 1.1 ± 0.017. With TTATAGAGGT the switch fluorescence ratio was 1.01 ± 0.011. TTATAGGGCG showed a switch fluorescence ratio of 1.02 ± 0.047. Sequence TTATATCAGA has a switch fluorescence ratio of 1.016 ± 0.0083. TTATATGTAG showed a switch fluorescence ratio of 0.993 ± 0.024. In the case of TTATATGTGT, the switch fluorescence ratio is reported as 1.01 ± 0.039. TTATATGTTA gave a switch fluorescence ratio of 1.03 ± 0.055. TTATATTACT gave a switch fluorescence ratio of 1.01 ± 0.027. TTATATTTAG gave a switch fluorescence ratio of 0.988 ± 0.011. TTATATTTAT gave a switch fluorescence ratio of 1.03 ± 0.069. TTATATTTTG gave a switch fluorescence ratio of 0.998 ± 0.017. TTATATTTTT was tested, and the switch fluorescence ratio was 1.02 ± 0.023. Sequence TTATCACTGG has a switch fluorescence ratio of 1 ± 0.07. In the case of TTATCAGTGT, the switch fluorescence ratio is reported as 0.972 ± 0.063. With TTATCATTTA the switch fluorescence ratio was 1.01 ± 0.03. Work on TTATCGGTAT yielded a switch fluorescence ratio of 1 ± 0.042. In the case of TTATCTGATT, the switch fluorescence ratio is reported as 0.9952 ± 0.0017. Sequence TTATCTGCCT has a switch fluorescence ratio of 1.06 ± 0.072. Work on TTATGAACTT yielded a switch fluorescence ratio of 1 ± 0.035. With TTATGAAGAC the switch fluorescence ratio was 1.025 ± 0.01. TTATGAAGGA gave a switch fluorescence ratio of 1.02 ± 0.021. Sequence TTATGAAGGT has a switch fluorescence ratio of 1.02 ± 0.06. TTATGATTCT showed a switch fluorescence ratio of 0.972 ± 0.025. TTATGCGGGG showed a switch fluorescence ratio of 0.995 ± 0.046. TTATGCTGGG was tested, and the switch fluorescence ratio was 0.974 ± 0.012. TTATGGGACA was tested, and the switch fluorescence ratio was 1.026 ± 0.0097. TTATGGGATT gave a switch fluorescence ratio of 0.993 ± 0.019. TTATGGGCGG gave a switch fluorescence ratio of 1.02 ± 0.047. In the case of TTATGGTCGG, the switch fluorescence ratio is reported as 0.984 ± 0.016. Work on TTATGGTGCA yielded a switch fluorescence ratio of 0.99 ± 0.023. With TTATGGTGGT the switch fluorescence ratio was 0.973 ± 0.027. TTATGTAATC showed a switch fluorescence ratio of 1.19 ± 0.25. With TTATGTCCGG the switch fluorescence ratio was 1.02 ± 0.025. In the case of TTATGTGACT, the switch fluorescence ratio is reported as 1.01 ± 0.021. For TTATGTGCGA, the switch fluorescence ratio was 1.02 ± 0.013. In the case of TTATGTGTCG, the switch fluorescence ratio is reported as 0.983 ± 0.033. With TTATGTGTGT the switch fluorescence ratio was 0.996 ± 0.028. TTATGTTAAA gave a switch fluorescence ratio of 1.01 ± 0.022.
